Experimental findings from patent US20200248336A1 are described below.

Numbering of substitutions follows the chain as printed.

Broadly, the Kd is the free concentration of one partner at which half of the binding sites on the other are occupied at equilibrium, for simple one-to-one binding. Low readings indicate a tighter complex, high ones a looser complex.

Test [1] has as its target TAGT-8H (human). As to the kind of experiment: BLI Octet RED96, antigen-Fc on AHC sensor, Fab analyte.
In test [2] the target is TAGT-8 (human). As to the kind of experiment: BLI, Octet RED96, antigen-Fc on AHC sensor, Fab in solution. (In general: Biolayer interferometry detects binding as a change in optical thickness at a sensor tip.)
Test [3] concerns the target TAGT-8 (human). Briefly: BLI (Octet), antigen-Fc on AHC sensor.
The target of test [4] is TAGT-8 (human). Briefly: BLI (Octet RED96), antigen Fc-His on AHC sensor, Fab in solution.
Test [5] deals with TAGT-8H (human). As to the kind of experiment: BLI (Octet), antigen-Fc captured, Fab in solution.
For test [6], the target named is TAGT-8 (human). Briefly: BLI Octet, antigen-Fc on AHC sensor, Fab analyte.
Test [7] addresses TAGT-6 (human). As to the kind of experiment: BLI (Octet RED96), antigen-Fc on AHC sensor, Fab in solution.
Test [8] has as its target TAGT-6 (human). As to the kind of experiment: BLI Octet RED96, antigen-Fc on AHC sensor, Fab analyte.
The target of test [9] is TAGT-6 (human). Briefly: BLI (Octet), antigen-Fc on AHC sensor.
In test [10] the target is TAGT-8H (human). Briefly: BLI (Octet RED96), antigen-Fc on AHC sensor, Fab in solution.
Test [11] concerns the target TAGT-8M (mouse). The description is as above.
Test [12] has as its target TAGT-8M (mouse). As to the kind of experiment: BLI (Octet RED96), antigen Fc-His on AHC sensor, Fab in solution.
Test [13] deals with TAGT-8M (mouse). Briefly: BLI (Octet), antigen-Fc on AHC sensor.
Test [14] concerns the target TAGT-12 (human). Briefly: BLI (Octet RED96), antigen Fc-His on AHC sensor, Fab in solution.
Test [15] concerns the target TAGT-12 (human). Briefly: BLI Octet RED96, antigen-Fc on AHC sensor, Fab analyte.
Test [16] addresses TAGT-12 (human). Briefly: BLI, Octet RED96, antigen-Fc on AHC sensor, Fab in solution.
Test [17] has as its target TAGT-6 (human). Briefly: BLI (Octet RED96), antigen Fc-His on AHC sensor, Fab in solution.
Test [18] has as its target TAGT-6 (human). As to the kind of experiment: BLI Octet, antigen-Fc on AHC sensor, Fab analyte.
For test [19], the target named is TAGT-12 (human). As to the kind of experiment: BLI (Octet RED96), antigen-Fc on AHC sensor, Fab in solution.
The target of test [20] is TAGT-12 (human). As to the kind of experiment: BLI (Octet), antigen-Fc on AHC sensor.

B1: Hit ID 4036 (Fab, V domains shown)
VH: EVQLVESGGGLVQPGGSLRLSCAASGFSLSTSGVGVGWIRQAPGKGLEWIGEIYHSGSTYYSPSLKSRVTISRDNSKNTLYLQLNSLRAEDTAVYYCARERYGSYYFDYWGQGTLVTVSS
VL: DIQLTQSPSSLSASVGDRVTITCRASQSVDFYGKSFLDWYQQKPGKAPKLLIYDASSLESGVPSRFSGSGSGTDFTLTISSLQPEDFATYYCQQYYRIPPTFGQGTKVEIKR
As for B1, the Kd with TAGT-8H (human) [1], with TAGT-8 (human) [2] and with TAGT-8 (human) [3] was 3.13 nM in each case.

B2: Hit ID 4034 (Fab, V domains shown)
VH: EVQLVESGGGLVQPGGSLRLSCAASGYSISSGHYWNWIRQAPGKGLEWVSSISGYGSTTYYADSVKGRFTISRDNSKNTLYLQLNSLRAEDTAVYYCARERYYGSTDYAFDYWGQGTLVTVSS
VL: DIQLTQSPSSLSASVGDRVTITCSASSRVSHVFWYQQKPGKAPKLLIYAASTLQSGVPSRFSGSGSGTDFTLTISSLQPEDFATYFCLQGTHFPWTFGQGTKVEIKR
As for B2, the dissociation constant (Kd) in the test with TAGT-8 (human) [4], with TAGT-8H (human) [5] and with TAGT-8 (human) [6] was 4.27 nM throughout.

B3: Hit ID 5404 (Fab, V domains shown)
VH: EVQLVESGGGLVQPGGSLRLSCAASGYSISSGYHWAWIRQAPGKGLEWIGEIYHSGSTYYSPSLKSRVTISRDNSKNTLYLQLNSLRAEDTAVYYCARSPYYYGVFDYWGQGTLVTVSS
VL: DIQLTQSPSSLSASVGDRVTITCSASSRVGSVYWYQQKPGKAPKLLIYDASNLETGVPSRFSGSGSGTDFTLTISSLQPEDFATYYCQQYTHDPVTFGQGTKVEIKR
Regarding B3, the Kd with TAGT-6 (human) [7], with TAGT-6 (human) [8] and in the test with TAGT-6 (human) [9] was 3.3 nM throughout.

B4: Hit ID 4027 (Fab, V domains shown)
VH: EVQLVESGGGLVQPGGSLRLSCAASGYSITSGHHWNWIRQAPGKGLEWIGWISPSSGGTKYAQKFQGRVTISRDNSKNTLYLQLNSLRAEDTAVYYCARGFDGFHYWGQGTLVTVSS
VL: DIQLTQSPSSLSASVGDRVTITCRASESVDFYGISFLPWYQQKPGKAPKLLIYDASNRATGIPSRFSGSGSGTDFTLTISSLQPEDFATYYCQQSYSWPWTFGQGTKVEIKR
On to B4, for which the Kd was found to be 1.55 nM with TAGT-8H (human) [10]; 3.81 nM with TAGT-8M (mouse) [11]; 3.81 nM with TAGT-8M (mouse) [12]; 1.55 nM with TAGT-8 (human) [4]; 3.81 nM in the test with TAGT-8M (mouse) [13]; 1.55 nM in the test with TAGT-8 (human) [3].

B5: Hit ID 6010 (Fab, V domains shown)
VH: EVQLVESGGGLVQPGGSLRLSCAASGYSISSGHYWNWIRQAPGKGLEWIGWINPNRGDTNYAQKFQGRVTISRDNSKNTLYLQLNSLRAEDTAVYYCARDYYGDFDYWGQGTLVTVSS
VL: DIQLTQSPSSLSASVGDRVTITCRASQSISSYLNWYQQKPGKAPKLLIYDASNLETGVPSRFSGSGSGTDFTLTISSLQPEDFATYYCQHHYGTPLTFGQGTKVEIKR
For the molecule B5, the Kd with TAGT-12 (human) [14], in the test with TAGT-12 (human) [15] and with TAGT-12 (human) [16] was 28.3 nM each time.

B6: Hit ID 7183 (Fab, V domains shown)
VH: EVQLVESGGGLVQPGGSLRLSCAASGYSISSGHYWNWIRQAPGKGLEWVSSISGYGDTTYYADSVKGRFTISRDNSKNTLYLQLNSLRAEDTAVYYCAREGSDTVLGDWFAYWGQGTLVTVSS
VL: B5 VL with L54R, E55A, V58I, H90Q, H91S, G93S, L96P
On to B6, for which the Kd with TAGT-6 (human) [7], with TAGT-6 (human) [17] and in the test with TAGT-6 (human) [18] was 14.8 nM each time.

B7: Hit ID 7040 (Fab, V domains shown)
VH: EVQLVESGGGLVQPGGSLRLSCAASGYSISSGYYWNWIRQAPGKGLEWIGWISPSGGSTNYAQKFQGRVTISRDNSKNTLYLQLNSLRAEDTAVYYCARDLTAGGFDYWGQGTLVTVSS
VL: B5 VL with S28G, N34A, H90Q, H91Y, G93S
As for B7, the Kd with TAGT-8H (human) [10], with TAGT-8H (human) [1] and with TAGT-8 (human) [6] was 27.2 nM each time.

B8: Hit ID 5115 (Fab, V domains shown)
VH: EVQLVESGGGLVQPGGSLRLSCAASGYSISSGHYWGWIRQAPGKGLEWIGEIYHSGSTYYSPSLKSRVTISRDNSKNTLYLQLNSLRAEDTAVYYCARESYYAFDYWGQGTLVTVSS
VL: B5 VL with I29V, N34A, D50A, N53T, E55Q, T56S, H90Q, H91Y, G93T
With B8, the Kd with TAGT-12 (human) [19] and in the test with TAGT-12 (human) [20] was 11.6 nM each time.

B9: Hit ID 7097 (Fab, V domains shown)
VH: B6 VH with Y34H, N36D, S51Y, Y55A, T104A
VL: B5 VL with S28G, N34A, H90Q, H91Y, G93S
For the molecule B9, the dissociation constant Kd in the test with TAGT-6 (human) [7], in the test with TAGT-6 (human) [8] and with TAGT-6 (human) [9] was 24.3 nM each time.
